Experimental data as given in patent US20240117018A1.

Key:
Experiment in all cases: cell-based or functional assay
[1] = target: HIV-1 Env of pseudovirus 1012_11_TC21_3257 (HIV-1)
[2] = target: HIV-1 Env of pseudovirus 1056_10_TA11_1826 (HIV-1)
[3] = target: HIV-1 Env of pseudovirus 1394C9G1(Rev-) (HIV-1)
[4] = target: HIV-1 Env of pseudovirus 246F C1G (HIV-1)
[5] = target: HIV-1 Env of pseudovirus 3365.v2.c2 (HIV-1)
[6] = target: HIV-1 Env of pseudovirus 3415.v1.c1 (HIV-1)
[7] = target: HIV-1 Env of pseudovirus 6240_08_TA5_4622 (HIV-1)
[8] = target: HIV-1 Env of pseudovirus 6244_13_B5_4576 (HIV-1)
[9] = target: HIV-1 Env of pseudovirus 7030102001E5(Rev-) (HIV-1)
[10] = target: HIV-1 Env of pseudovirus AC10.0.29 (HIV-1)
[11] = target: HIV-1 Env of pseudovirus CAP45.2.00.G3 (HIV-1)
[12] = target: HIV-1 Env of pseudovirus CNE17 (HIV-1)
[13] = target: HIV-1 Env of pseudovirus CNE30 (HIV-1)
[14] = target: HIV-1 Env of pseudovirus CNE52 (HIV-1)
[15] = target: HIV-1 Env of pseudovirus CNE53 (HIV-1)
[16] = target: HIV-1 Env of pseudovirus CNE58 (HIV-1)
[17] = target: HIV-1 Env of pseudovirus Ce0393_C3 (HIV-1)
[18] = target: HIV-1 Env of pseudovirus Ce1172_H1 (HIV-1)
[19] = target: HIV-1 Env of pseudovirus Ce2010_F5 (HIV-1)
[20] = target: HIV-1 Env of pseudovirus Ce2060_G9 (HIV-1)
[21] = target: HIV-1 Env of pseudovirus Ce704809221_1B3 (HIV-1)
[22] = target: HIV-1 Env of pseudovirus Du172.17 (HIV-1)
[23] = target: HIV-1 Env of pseudovirus Du422.1 (HIV-1)
[24] = target: HIV-1 Env of pseudovirus HIV-16055-2.3 (HIV-1)
[25] = target: HIV-1 Env of pseudovirus Q461.e2 (HIV-1)
[26] = target: HIV-1 Env of pseudovirus Q842.d12 (HIV-1)
[27] = target: HIV-1 Env of pseudovirus RHPA4259.7 (HIV-1)
[28] = target: HIV-1 Env of pseudovirus TRJO4551.58 (HIV-1)
[29] = target: HIV-1 Env of pseudovirus TRO.11 (HIV-1)
[30] = target: HIV-1 Env of pseudovirus ZM109F.PB4 (HIV-1)
[31] = target: HIV-1 Env of pseudovirus ZM214M.PL15 (HIV-1)
[32] = target: HIV-1 Env of pseudovirus ZM249M.PL1 (HIV-1)
[33] = target: HIV-1 Env of pseudovirus ZM53M.PB12 (HIV-1)

In the case of 8ANC195 (antibody), the IC50 [1] is reported as > 50 µg/mL, the IC80 [1] is reported as > 50 µg/mL and the IC50 [2] is reported as > 50 µg/mL. The IC80 [2] was > 50 µg/mL, the IC50 [3] was > 50 µg/mL and the IC80 [3] was > 50 µg/mL. For the same substance, the IC50 [4] was 12.8 µg/mL, the IC80 [4] was > 50 µg/mL and the IC50 [5] was > 30 µg/mL. For the same substance, the IC80 [5] was > 30 µg/mL, the IC50 [6] was 17.7 µg/mL and the IC80 [6] was 17.7 µg/mL. For the same substance, the IC50 [7] was > 50 µg/mL, the IC80 [7] was > 50 µg/mL and the IC50 [8] was > 50 µg/mL. The IC80 [8] was > 50 µg/mL, the IC50 [9] was 0.86 µg/mL and the IC80 [9] was 8.32 µg/mL. The IC50 [10] was 0.88 µg/mL, the IC80 [10] was 7 µg/mL and the IC50 [11] was 28.3 µg/mL. For the same substance, the IC80 [11] was > 50 µg/mL, the IC50 [12] was 2.59 µg/mL and the IC80 [12] was 11.1 µg/mL. The IC50 [13] was 7.52 µg/mL, the IC80 [13] was 40.5 µg/mL and the IC50 [14] was 5.59 µg/mL. For the same substance, the IC80 [14] was 43.1 µg/mL, the IC50 [15] was > 50 µg/mL and the IC80 [15] was > 50 µg/mL. The IC50 [16] was > 50 µg/mL, the IC80 [16] was > 50 µg/mL and the IC50 [17] was 6.77 µg/mL. For the same substance, the IC80 [17] was > 50 µg/mL, the IC50 [18] was 42.3 µg/mL and the IC80 [18] was > 50 µg/mL. The IC50 [19] was > 50 µg/mL, the IC80 [19] was > 50 µg/mL and the IC50 [20] was 6.2 µg/mL. For the same substance, the IC80 [20] was > 50 µg/mL, the IC50 [21] was 0.48 µg/mL and the IC80 [21] was 3.52 µg/mL. For the same substance, the IC50 [22] was > 30 µg/mL, the IC80 [22] was > 30 µg/mL and the IC50 [23] was > 50 µg/mL. For the same substance, the IC80 [23] was > 50 µg/mL, the IC50 [24] was 15.3 µg/mL and the IC80 [24] was > 50 µg/mL. The IC50 [25] was 0.63 µg/mL, the IC80 [25] was 2.51 µg/mL and the IC50 [26] was > 30 µg/mL. For the same substance, the IC80 [26] was > 30 µg/mL, the IC50 [27] was 0.34 µg/mL and the IC80 [27] was 1.56 µg/mL. For the same substance, the IC50 [28] was 0.19 µg/mL, the IC80 [28] was 1.17 µg/mL and the IC50 [29] was 0.18 µg/mL. For the same substance, the IC80 [29] was 0.89 µg/mL, the IC50 [30] was > 30 µg/mL and the IC80 [30] was > 30 µg/mL. For the same substance, the IC50 [31] was 0.91 µg/mL, the IC80 [31] was 12.3 µg/mL and the IC50 [32] was > 50 µg/mL. The IC80 [32] was > 50 µg/mL, the IC50 [33] was > 30 µg/mL and the IC80 [33] was > 30 µg/mL.
In the case of NIH 45-46 (antibody), the IC50 [1] is reported as 0.01 µg/mL, the IC80 [1] is reported as 0.04 µg/mL and the IC50 [2] is reported as 0.12 µg/mL. It also gave an IC80 [2] of 0.59 µg/mL, an IC50 [3] of 0.09 µg/mL and an IC80 [3] of 0.38 µg/mL. For the same substance, the IC50 [4] was > 50 µg/mL, the IC80 [4] was > 50 µg/mL and the IC50 [5] was 0.11 µg/mL. The IC80 [5] was 0.11 µg/mL, the IC50 [6] was 0.07 µg/mL and the IC80 [6] was 0.07 µg/mL. For the same substance, the IC50 [7] was 0.44 µg/mL, the IC80 [7] was 1.55 µg/mL and the IC50 [8] was 0.07 µg/mL. The IC80 [8] was 0.26 µg/mL, the IC50 [9] was 0.14 µg/mL and the IC80 [9] was 0.63 µg/mL. The IC50 [10] was 0.42 µg/mL, the IC80 [10] was 1.49 µg/mL and the IC50 [11] was > 50 µg/mL. For the same substance, the IC80 [11] was > 50 µg/mL, the IC50 [12] was 0.15 µg/mL and the IC80 [12] was 0.55 µg/mL. The IC50 [13] was 0.34 µg/mL, the IC80 [13] was 1.48 µg/mL and the IC50 [14] was 0.03 µg/mL. It also gave an IC80 [14] of 0.12 µg/mL, an IC50 [15] of 0.01 µg/mL and an IC80 [15] of 0.04 µg/mL. For the same substance, the IC50 [16] was 0.25 µg/mL, the IC80 [16] was 1.49 µg/mL and the IC50 [17] was 0.32 µg/mL. For the same substance, the IC80 [17] was 1.07 µg/mL, the IC50 [18] was > 50 µg/mL and the IC80 [18] was > 50 µg/mL. It also gave an IC50 [19] of 0.13 µg/mL, an IC80 [19] of 0.43 µg/mL and an IC50 [20] of 0.14 µg/mL. For the same substance, the IC80 [20] was 0.48 µg/mL, the IC50 [21] was 0.15 µg/mL and the IC80 [21] was 0.88 µg/mL. The IC50 [22] was > 30 µg/mL, the IC80 [22] was > 30 µg/mL and the IC50 [23] was > 50 µg/mL. For the same substance, the IC80 [23] was > 50 µg/mL, the IC50 [24] was 0.02 µg/mL and the IC80 [24] was 0.06 µg/mL. The IC50 [25] was 0.06 µg/mL, the IC80 [25] was 0.32 µg/mL and the IC50 [26] was 0.03 µg/mL. For the same substance, the IC80 [26] was 0.03 µg/mL, the IC50 [27] was < 0.05 µg/mL and the IC80 [27] was < 0.05 µg/mL. The IC50 [28] was 0.01 µg/mL, the IC80 [28] was 0.05 µg/mL and the IC50 [29] was 1.9 µg/mL. It also gave an IC80 [29] of 9.56 µg/mL, an IC50 [30] of 0.22 µg/mL and an IC80 [30] of 0.22 µg/mL. The IC50 [31] was 0.05 µg/mL, the IC80 [31] was 0.39 µg/mL and the IC50 [32] was 0.02 µg/mL. It also gave an IC80 [32] of 0.06 µg/mL, an IC50 [33] of 0.65 µg/mL and an IC80 [33] of 0.65 µg/mL.
3BNC117 (antibody) gave an IC50 [1] of 0.02 µg/mL, an IC80 [1] of 0.07 µg/mL and an IC50 [2] of 0.3 µg/mL. The IC80 [2] was 1.82 µg/mL, the IC50 [3] was > 50 µg/mL and the IC80 [3] was > 50 µg/mL. The IC50 [4] was 19.3 µg/mL, the IC80 [4] was > 50 µg/mL and the IC50 [5] was 0.03 µg/mL. The IC80 [5] was 0.1 µg/mL, the IC50 [6] was 0.17 µg/mL and the IC80 [6] was 0.47 µg/mL. The IC50 [7] was 0.33 µg/mL, the IC80 [7] was 1.17 µg/mL and the IC50 [8] was 0.04 µg/mL. The IC80 [8] was 0.15 µg/mL, the IC50 [9] was 0.29 µg/mL and the IC80 [9] was 1.44 µg/mL. The IC50 [10] was 13.8 µg/mL, the IC80 [10] was > 50 µg/mL and the IC50 [11] was 3.88 µg/mL. The IC80 [11] was > 50 µg/mL, the IC50 [12] was 5.76 µg/mL and the IC80 [12] was 43 µg/mL. The IC50 [13] was 0.26 µg/mL, the IC80 [13] was 0.85 µg/mL and the IC50 [14] was 0.02 µg/mL. For the same substance, the IC80 [14] was 0.06 µg/mL, the IC50 [15] was 0.08 µg/mL and the IC80 [15] was 0.99 µg/mL. The IC50 [16] was 0.25 µg/mL, the IC80 [16] was 2.03 µg/mL and the IC50 [17] was 0.2 µg/mL. The IC80 [17] was 0.67 µg/mL, the IC50 [18] was > 50 µg/mL and the IC80 [18] was > 50 µg/mL. It also gave an IC50 [19] of 0.05 µg/mL, an IC80 [19] of 0.21 µg/mL and an IC50 [20] of 0.24 µg/mL. It also gave an IC80 [20] of 0.81 µg/mL, an IC50 [21] of 0.08 µg/mL and an IC80 [21] of 0.31 µg/mL. For the same substance, the IC50 [22] was 1.19 µg/mL, the IC80 [22] was 8.9 µg/mL and the IC50 [23] was > 50 µg/mL. The IC80 [23] was > 50 µg/mL, the IC50 [24] was 5.6 µg/mL and the IC80 [24] was > 50 µg/mL. For the same substance, the IC50 [25] was 0.03 µg/mL, the IC80 [25] was 0.09 µg/mL and the IC50 [26] was < 0.01 µg/mL. The IC80 [26] was 0.01 µg/mL, the IC50 [27] was < 0.09 µg/mL and the IC80 [27] was < 0.09 µg/mL. For the same substance, the IC50 [28] was 0.05 µg/mL, the IC80 [28] was 0.19 µg/mL and the IC50 [29] was < 0.09 µg/mL. The IC80 [29] was < 0.09 µg/mL, the IC50 [30] was 0.14 µg/mL and the IC80 [30] was 0.88 µg/mL. It also gave an IC50 [31] of 0.06 µg/mL, an IC80 [31] of 0.52 µg/mL and an IC50 [32] of 0.03 µg/mL. For the same substance, the IC80 [32] was 0.11 µg/mL, the IC50 [33] was 0.21 µg/mL and the IC80 [33] was 0.85 µg/mL.
